Target: human CD38 (human, UniProt P28907 1-300)
Test: cell-based or functional assay

B1: chimeric 38SB31 (antibody, V domains shown)
VH: DVKLVESGGGLVKPGGSLKLSCEASGFTFSSYTLSWVRQTPETRLEWVATISIGGRYTYYPDSVEGRFTISRDNAKNTLYLQMNSLKSEDTAMYYCTRDFNGYSDFWGQGTTLTVSS
VL: DTVMTQSHKFISTSVGDRVSITCKASQVVGSAVAWYQQKPGQSPKLLIYWASTRHTGVPDRFTGSGSGTDFTLTISNVQSEDLADYFCQQYNSYPYTFGGGTKLEIKR
  CDC: specific viability of Daudi cells with 1.25 µg/mL or higher antibody and complement: 53%

Reference: patent US20200408765A1 (Sanofi, published 2020)
